Assay results published in patent US20240251767A1 (LEVERAGEN, published 2024).
Read-outs that look alike come from different tables or passages of the source.

B1: M2S521_378 Nb-human Fc fusion (Fc fusion, not shown: a dimerising Fc or GST)
VH: EVQLQQSGPELVKPGASVKISCKASGYTFTDYYMKWVKQSHGKSLEWIGDINPKNGGTNYNQKFKDKATLTVDKSSSTAYMELRSLTSEDSAVYYCARLEDGYYGYAIDYWSQGTSVTVSS
notes: also called LVGN-S231378; LVGN-S521378
B2: MS329_5 Nb-human Fc fusion (Fc fusion, not shown: a dimerising Fc or GST)
VH: EVQLQQSGPELVKPGASVKMSCKASGYTFTDYYIKWEKQSHGKSLEWIGDINPKNGETFYNQQFKGKATLTVDKSSSTAYMQLNSLTSEDSAVYYCARKEYGDYGYAVDYWGQGTSVTVSS
notes: also called LVGN-S3205; LVGN-53205

Tests used:
[1] = target: T1, SARS-Cov2 Spike Active Trimer SAT (R&D Systems; Catalog No. 10549-CV) (SARS-CoV2, UniProt P0DTC2 16-1211); experiment: ELISA, serially diluted purified Nb-Fc on SAT antigen
T1 construct: also called SARS-CoV2 Spike Active Trimer protein; recombinant SAT protein

[2] = target: T1, SARS-Cov2 Spike Active Trimer SAT (R&D …)
[3] = target: T1, SARS-Cov2 Spike Active Trimer SAT (R&D …); experiment: SPR (Carterra)
[4] = target: T1, SARS-Cov2 Spike Active Trimer SAT (R&D …)

Binder | EC50 [1] | Kd [2] | koff [2] | kon [2] | Kd [3] | Kd [4]
B1 | 0.081 nM |  |  |  |  | 
B2 | 0.024 nM | 1.06 nM | 0.000143 s⁻¹ | 135000 M⁻¹ s⁻¹ | 3.17 nM | 1.21 nM
